How the values were obtained:
4E-BP1 (Calbiochem) = 4E-BP1 (Calbiochem) (UniProt Q13541)
His-S6K1C = His-S6K1C (UniProt P23443)
Sequence of His-S6K1C (P23443 332-502): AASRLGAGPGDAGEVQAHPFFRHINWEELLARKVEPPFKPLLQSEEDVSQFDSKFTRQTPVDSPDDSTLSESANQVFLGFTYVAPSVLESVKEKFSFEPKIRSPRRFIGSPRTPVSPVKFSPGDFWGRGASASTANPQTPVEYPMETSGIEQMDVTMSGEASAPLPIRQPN

Sequence of 4E-BP1 (Calbiochem) (Q13541 whole entry): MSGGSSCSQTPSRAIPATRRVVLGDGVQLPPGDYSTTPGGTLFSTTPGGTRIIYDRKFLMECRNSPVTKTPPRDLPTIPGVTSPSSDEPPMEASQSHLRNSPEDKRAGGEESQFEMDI

FLAG-mTORα
mTOR in vitro kinase assay; immunoblot with phosphospecific antibody pS65-4E-BP1 (4E-BP1 (Calbiochem)): mTORβ can phosphorylate both S6K1 and 4E-BP1 in vitro, but to a lesser extent than mTORα
mTOR in vitro kinase assay; immunoblot with phosphospecific antibody pT389-S6K1 (His-S6K1C): mTORβ can phosphorylate both S6K1 and 4E-BP1 in vitro, but to a lesser extent than mTORα

— patent US20170145391
